Reference: the nanobody polyreactivity screen of Harvey et al. (2022)

Assay: yeast display, Sf9 membrane polyspecificity reagent, FACS + sequencing; frameworks hold sequencing errors
In short: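 Nanobodies came from a synthetic yeast display library in Saccharomyces cerevisiae BJ5465, induced with galactose for 36–48 hours and stained for 1 hour at 4 °C with 10% biotinylated, detergent-solubilized Sf9 membrane reagent. Cells were enriched on streptavidin microbeads and then FACS-sorted, with low and high (top ~1%) gates set on anti-HA fluorescence for expression and streptavidin fluorescence for reagent binding. Each polyreactivity label reflects the gate a clone came from. Genes were amplified by colony PCR, sequenced by MiSeq 2 × 250 and filtered by CDR length.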

| Sequence | polyreactivity (PSR sort gate) |
| --- | --- |
| QVHLVESGGGLDQAGGSLRLSCAASGIIFFKNAMGWYRPAPGKERELVAAISSTDTRTYYADSVKGRFTISRDNAKNTVYLQKNSLKPEDTAVYYCAADYIYYYEQYLWYTYDYWGQGTQVTLSS | high polyreactivity |
| QVHLVESGGGLLQAGGSLRLSCAASGSTFSINGMGWYRQAPGKERELVAAITWRGTRTYYADSVKGRFTISRDNAKNTVYLEMNSLKPEVTAVYYCAATGSGEASFYYWGQGTQVTVSS | high polyreactivity |
| QVHLVESGGGLVHAGGSLRLSCAASGSIFPYYAMGWYRQAPGKETELVAAISRSGGSTYYADSVKGRFTISRDYAKNTVYLQMNSLKPDDTAVYYCAADYARYVRKTRYGSWGKGTQVTVSS | high polyreactivity |
| QVHLVESGGGLVKAGGSLRISCAASGRTFVCYAMGCYRPAPGKERELVAAISSGGSTNYADSVKGRFTISRDNAKNTVYLLMICLKPEDTAVYYCNRRSYQRGWHWARGRYGFWGQGTQVTVSS | high polyreactivity |
| QVHLVESGGGLVKAGGSLRLSCAASGITFGSYAMGWYRQAPGKERELVAAIDTSGDDTYYADSVKGRFTISRDNAKNTVYLQMNSLKPEDTAVYYCAADFPSAEVDYWGQGTQVTVSS | low polyreactivity |
| QVHLVESGGGLVKAGGSLRLSCAASGLIFTQYSMGWYRQAPGTERELVAGITSSGGSTNYADSVKGRFTISRDNAKNTVYLQMNSLKPEDTAVYYCATRLGVLYDYWGQGTQVTVSS | low polyreactivity |
| QVHLVESGGGLVKAGGSLRLSCAASGSTFYANAMGWYRQAPGKEREFVASITWSGGSTYYADSVKGRFTISRDNAKNTVYLQMNSLKPEDTSVYYCAANIGHNGFDYWGQGTQVNVSS | low polyreactivity |
| QVHLVESGGGLVKAGGSLRLSCAASGSTKNYVMGWYRQAPGKERELVAAISRGSSTYYADSVKGRFTISRDNAKNTVYLQMNSLKPEDTAVYYCAARGPWQAPYDYWGQGTQVTVSS | high polyreactivity |
| QVHLVESGGGLVKAGGSLRLSCAASGSTKYYVMGWYRQAPGKERELVAAISRGSSTYYADSVKGRFTISRDNAKNTVYLQMNSLKPEDTAVYYCAARGPWQAPYDYWGQGTQVTVSS | high polyreactivity |
| QVHLVESGGGLVKAGGSLRLSCAASGSTSTLYAMGWYRQAPGKERELVAAISKSGGRTYYADSVKGRFTNSRDNAKNTVYLQMNSLKPEDTAVYYCNTVPGRYRTFDYWGQGTQVTVSS | high polyreactivity |
| QVHLVESGGGLVLAPASLRLSSPASGHNQGIYAMGWYRQAPGKEREFVAAISRGGGSTYYADSVKGRFTISRDNAKNTVYLQMNSLNPEDTAVYYCNAVRDRYGVFPYYYWGQGTQVTVSS | high polyreactivity |
| QVHLVESGGGLVPAGGSLRLSCPASGSIFYEYAMGWYRQPPGKERELVAAITVTSGSTYYADSVKGRFTISRDNAKNTVYLQMNSLKPEDTAVYYCASRIYHTYRFYYWGQGTQVTVSS | low polyreactivity |
| QVHLVESGGGLVQAGASHRLSCAASGSISKSYAMGWYRQAPGKERELVAAISWRGGSTYADSVKGRFTISRDNAKNTVYLQMNSLKPEDTAVYYCAATNYGTFWVGQSERYDYWGQGTQVNVSS | low polyreactivity |
| QVHLVESGGGLVQAGCSLRLRSAASGRIFSRNAMGRYRQAPGKERELVAAISTGGTTNYADSVKGRFTISRDNANNTVYLQMNSLKPEDTALYYCNAGLLRRRMDYWGQGTQVTVSS | high polyreactivity |
| QVHLVESGGGLVQAGCSLRLSCAASGSTIYRYAMGWYRQAPGKERELVASINGGDDTYYADSVKGRFTISRDNAKNNVYLQMTSLKPEDTAVYYCAAEVYGSWPFDTYYYWGQGTQVTVSS | high polyreactivity |
| QVHLVESGGGLVQAGGILRLSCAAFGFTFKSYAMVWYIQAPGKERELVAGITSSGGGTYYADSVKGRFTISRDNAKNTVYLQMNSLKPEDTAVYYCNTYSYLFSRYGYWGQGTQVTVSS | high polyreactivity |
| QVHLVESGGGLVQAGGILRLSCAASGFIFVRNAMGWYRQERGKEREFVAAINSSGGRTYYADSVKGRFTISRDNAKNTVYLQMNSLKPEDTAVYYCAARSQPKKFYYWGQGTQVTVSS | high polyreactivity |
| QVHLVESGGGLVQAGGILRLSCAASGFTFTSNAMGWYRQAPGKEREFVADISNIGGDTTYADSVKGRFTISRDNAKNTVYLQMNSLKPEDTAVYYCNADFAFIENDYWGQGTQVTVSS | low polyreactivity |
| QVHLVESGGGLVQAGGILRLSCPASGSTFVYYAMVWYRQAPGKERELVAAISRSGGNTYYAYSVKGRFTISRDNAKNTVYLQMNSLKQEDTAVYYCAARSYGVQYYYWGQGTQVTVSS | high polyreactivity |
| QVHLVESGGGLVQAGGRLRLSCAASGFTLRYYAMGWYRQAPGKESELVATINRSGASTYYADTVKGRFTISRDNAKNTVYLQMNSQKPEDTAVYYCKTATSRAYRYDYWGQGTQVTVSS | low polyreactivity |
| QVHLVESGGGLVQAGGRLRLSCAASGGTFYYNAMGRYRHATGKERELVAGITQSGGNTYYADSVKGRFTISRDNAKNTVYLHMNSLKPEDTVVYYCAARIRGTWKYGYWGQGTQVTVSS | low polyreactivity |

| Sequence | polyreactivity (PSR sort gate) |
| --- | --- |
| QVHLVESGGGLVQAGGSHRLRCAASGRIFSGYAKGRYRQAPGKERELVAAITQSGGSTSYADSVKGRFTISRDNAKNTVYLQMIRLKPEDTAVYYCNVDDSTWIGAYRRYDYWGQGTQVTVSS | low polyreactivity |
| QVHLVESGGGLVQAGGSIRLSCAASGRTFAYNVKGWYIQAPGKVREVVAGISFGAGSTYYADSVKGRFTISRDNAKNTVYLQMNSLKPEDTAVYYCATGRRGTRYPRGYDYWGQGTQVTVSS | high polyreactivity |
| QVHLVESGGGLVQAGGSLRISCAASGIIFYTYARGWYRQAPGKERELVAAISRSGGSTYYADSVKGRFTISRDNAKYTVYLQMNSRKPEDTAVDYCAADSTYRSTIQDYYWGQGTQVSVSS | high polyreactivity |
| QVHLVESGGGLVQAGGSLRISCAASGSTFHGYAMGWYRQEPGKEMELVAAITSGDSTNYADSVKGRFTISRDNAKNTVYLQMNSLKPEDTAVYFCNAEGDSLLTGYWGYPPYWDTYDNWGQGTQVTVSS | low polyreactivity |
| QVHLVESGGGLVQAGGSLRISCAASGSTFVYYAMGWYRQAPGTERELVAAISVSGDSTYYADSVKGRFTISRDNAKNTVYLQMNSLKPEDTAVYYCATEVYWTVSYYGYDYYGGNYYYWGQGTQVTVSS | low polyreactivity |
| QVHLVESGGGLVQAGGSLRISCAASGYIFSYYAMGWYRQAPGKERELVASITSSGGSTYYADSVKGRFTISRDNAKNTVYLQMNSLKPEYTAEYYCNADVYDTYSPLGYYYWGQGTQVTVSS | low polyreactivity |
| QVHLVESGGGLVQAGGSLRLICAASGFIFPRTAMGSYRQAPGKERELVAAISVSGGSTYYADSVKGRFTISRDYAKNTVYLQMNSLKPEDTAVYYCAKRTWDLRRTRHYYWGQGNQVTVSS | low polyreactivity |
| QVHLVESGGGLVQAGGSLRLICAASGRIFTKYAMGCYRQAPGKEREVVAAISYRGGSTYYADSVKGRFTISRDNAKNTVYLQMNILKPEDTAVYYCAAYATSTRYCYWGQGTQVTVSS | high polyreactivity |
| QVHLVESGGGLVQAGGSLRLICAASGRTFWYYAMGWYRQAPGKERELVAAITSGGSTNYADSVKRRFTISRDNAKNTVYLQMNILKPEDTAVYYCATDNPVFEYDYCGQGTQVTVSS | low polyreactivity |
| QVHLVESGGGLVQAGGSLRLRCAASGIIFKSYAMGWYRQAPGKERELVAAITKRGGSTYYADSVKGRFTISRDNAKNTVYLQMNSLKPEDTAVYDCAADDGVGNTDDYWGQGTQVTVSS | high polyreactivity |
| QVHLVESGGGLVQAGGSLRLRCAASGRIFPSNAMGWYRQAPWKERELVAGITWRRDSTYYADSVKGRFTISRDKAKNTVYLQMNSLKPEDTAVYYCAATFRYTKLYYWGQGTQVTVSS | low polyreactivity |
| QVHLVESGGGLVQAGGSLRLRCAASGYPFKRNDMGWYRHAPGKETQFVPAISKSGGSTYYADSVKGRFTISRDNAKNSVYLQRNSLKPEDTAVSYCAATRGLYRYWGRDKFDYWGQGTQVTVSS | low polyreactivity |
| QVHLVESGGGLVQAGGSLRLSCAACGSNLFVNTMGWYRQAPGKERELVAAISWIDGSTYYADSVKGRFTISRDNAKNSVYLHMNSLKPEDTAVYYCAASTYWREYDYWGQGTQVNVSS | low polyreactivity |
| QVHLVESGGGLVQAGGSLRLSCAASASTLGSNTMGWYRQAPGKERELVATISRRGGSTYYADSVKGRFTISRDNAKYTVYLQMNSLKPADTAVYYCAARPVYKFGSWGQGTQVTVSS | high polyreactivity |
| QVHLVESGGGLVQAGGSLRLSCAASGFIFAEYAMGWYRQEPGKERELVATINIGGSTYYADSVKGRFTISRDNAKNTVYLQMNSLKPEDTAVYYCAAEFWWGDGSQGIYDYDYWGQGSQVTVSS | low polyreactivity |
| QVHLVESGGGLVQAGGSLRLSCAASGFIFLGNAMGGYRQAPGKERELVAAISSGGSTYADSVKGRFTISRDNAKNTVYLQMNSLKPEDTAVYYCAVDRAFRAQNYHEYDYWGQGTQVTVSS | low polyreactivity |
| QVHLVESGGGLVQAGGSLRLSCAASGFIFRSYAMGWYRQAPGKEREFVAAITTRGTGTYYADSVKGRFTISRDNEKNTFYLQMNSLKPEDTAVYYCAARRGWGDDYWGQGTQVTVSS | high polyreactivity |
| QVHLVESGGGLVQAGGSLRLSCAASGFNFNKYALGWYRQAPGKERELVAAITIGGSTYYADSVKGRFTISRDNAKNTVYFQMNSLKPEDTAVYYCAAVQGKVRGGYYWGQGTQVTVSS | high polyreactivity |
| QVHLVESGGGLVQAGGSLRLSCAASGFTFDYYAMGWYRQAPGKERELVAAISWSGASTYYADSVKGRFTISRDNAKNTVYLQMNSLKPEDTAVYYCNRPKWYDGDYWGQGTQVTVSS | high polyreactivity |
| QVHLVESGGGLVQAGGSLRLSCAASGFTFIDYAMGWYRQAPGTERELVAAITTGTITYYADSVQGRFTISRDNAKNTVYLQMNSLKPEDTAVYYCAPTYSRRGGYRMEYWGQGTQVTVSS | low polyreactivity |
